Assay: label from the status in PepcDB records
In the case of “MEKYQNLLVVIDPNQDDQPALRRAVYIVQRNGGRIKAFLPVYDLSYDMTTLLSPDERNAMRKGVINQKTAWIKQQARYYLEAGIQIDIKVIWHNRPYEAIIEEVITDKHDLLIKMAHQHDKLGSLIFTPLDWQLLRKCPAPVWMVKDKEWPEYGTIVVAANLSNEESYHDALNLKLIELTNDLSHRIQKDPDVHLLSAYPVAPINIAIELPDFDPNLYNNALRGQHLIAMKELRQKFSIPEEKTHVKEGLPEQVIPQVCEELNAGIVVLGILGRTGLSAAFLGNTAEQLIDHIKCDLLAIKPDGFTCPITVDSDNE”, the protein production is reported as “not failed”. With “MELAAILFSMFFAMNIGASGAAASMGIAYGSEAVKKKFHALLICAAGVLSGAVIGGGNVVKTISSGIIPERVISLEIVCIIIGSAALSLFIANVLGIPLSTSEVTVGSVVGVGVAYQVLYVKSLLVIVSFWVIVPIVAFAFTFAMAKIMKKTIKRPASGKKAKVLAVILLITGFFEAFSAGMNNVANAVGPLVAAHVLTVGEGTLYGGLFVALGALLLGRRVLETNGKKITRFSKGEGIILSGTGAGLVITSSIFGLPVPLAQVTSSSIIGMGMAKNGGNVFHKQVVKTMLKVWVVSPFLSLSLSYMLVSLLLKGDYYALIVVTSVLLASVGTISLMRAVKKEHSSVHEQGGGI” the protein production was “failed”. With “MELANKMLHALEHEDMALAKKYFDEVVQAGTDEEQYYLAEELFALGFLDETEDLYELLLAKYKDEGELLVRAAEVALEKDDMDAAQDYLEKVNKEDEAYIESLLVLADLYQMQGLFEVSEQKLLEAKQMAPNEPIIDFALGEYYLSQARFASAVQSYQTAVEAGLTIISNGAVSVYERIAEAFAASGAFEEALPYYERALEDKESVDTLFGMGLTAYQAKDYTKAIHALEHLREHDPSYTTLYSYLAKSYEENGEPEKAIAVLRDGLTQDEFNKEMFLEAGKLAVTLRLPEEAEEFYRQAIVLDEEFSEAIMQLNKLLLAKENYEGVIELVEGLGEEVISEPQIFWDVSVAYQETEQYNKAKANYELAYPHFTNNPTFLKEYGLFLREEGEHAKSQEVLRSYLELEPEDTEILSLFD” the protein production was “failed”. With “MELAVHDATEDGAGYATAASSWVVVEPEFVVDVTDIRSFVQCPRLYYLNKLSGLPLKYPVTKGTIVHEVFGDLLRGRDLEASVAQRVDEAGLELGLLGRSRAEVEADVRDNASAIEGWLQQGRLTDEDEWRSEYTLVSERFGIKGRCDAIRRGMPVELKTGKNTNREPRFHDKVQAACYALMLDEHGVPADTGTLLYTKNAAVDRSEASGDLSPAKEFSIGRGFLEFVVRERNHLAALEASDGPPTGYEADAKCDYCFEQDTCMVVSGRLDQESKAGRIGDPVPAEERAYFDELYDAIEAERGAIHDEYRKLWEQSPDERAADDRAVVGLSPAEQTELPDGRWRLTATRPGSAASKIREGDRVLASDGDPVAGRAEMARVERLDADRVEVTTDEPVSLCRLDVYPSELSVDRMLTALHDAVLKSDQRRTDLLFDRASPRFEGGDHDLIPNNDAQNAAVNRALNAEDFALVHGPPGTGKTYTIATLVQAFVARGDRVLVSAFTNRAVDNALDALRQQGHEDIVRVGTETGVRADMQDLRLDRSGDPGERAAALRSAPVVAATTATCGSRILRELEFDVVLVDEASQLTEPDTLAAINRGARFVLVGDHEQLPPVVRSGGRLSKSLFERLHETYPEASVMLDQQYRMSQRIQAFSSREFYDGQLRPASSEVAGQRLTDVGVDPGGAVHGGVTFYDVPGTDDAHVDPAEADRVADVVTAYVDAGLDPGEIGVIAPFRAQVAEIGRRTPAGVAVDTVDRFQGSSKEVIVVSFVARGTLEGPIFEDHRRVNVALSRAKKSLVLVGDERALRSEPLYDRMIDWADMELEHHHHHH” the protein production was “failed”. With “MELFTLGACRQVGKSCFVLKTSEGLVMLDCGLHPSYQDDRRYPNFSLAFSYGPLKAVFITHCHADHVGALPILTERWGYDGPIYMSEPTRKLSYYILEECVGSWGGDDEWTDSSRSEWSYTQREVESCLTKVTIMEPGQSISVGENVQVHSWMAGHVLGAYMFSIVVDNHRILYTGDFTSCPTFHLPPARVDDIPYPPDVILSEATYATSFKDGRLNNQVEFIQNVLDCLLDGGKVLVPVFAIGRAQELLLLLGK” the protein production was “not failed”. In the case of “MELKTAADSNFSESEESPETKGIRILEGDPKKAIIKLAVPMIVAMSVQTLYQLIDTFWVSGLGADALAAMGFVFPFYFISMALSNGLGIGGGAAISRKIGARDKAGADNVAVHTIIIMMLLVLIFTIPFYVFAPHIFSLVGAGKTTDLAVAYARVIFLGSIVIFFTNVANSILRSEGDSKRAMYAMVLGAALNIVIDPIFIYTFKMGIAGAAWATLLSLAVSSAMMLNWLFFKKDTFVSFDFKDFSFEKSIINDIFRIAVPASAQQLSMSLSMLVLNLIIVNVSSTDGVAVYSTGWRVATIAIAPLVGIATAVVSVSGAAFGAKDFEKAKTAHTYAVKVGLLIEGGVAAFTFIFAPQIAAVFTQTEEAAHIAPDLIQFLRIICIFYPTVSLGMLSTSLFQGAGKGFSALTANLLRTIVFTPLFAAFFAFNLNMGQVGAWWGIVAGNAIGAGVVYVWVKLYLSTILKTGPLHKPFEQGI”, the protein production is reported as “failed”. For “MELLCHEVDPVRRAVRDRNLLRDDRVLQNLLTIEERYLPQCSYFKCVQKDIQPYMRRMVATWMLEVCEEQKCEEEVFPLAMNYLDRFLAGVPTPKSHLQLLGAVCMFLASKLKETSPLTAEKLCIYTDNSIKPQELLEWELVVLGKLKWNLAAVTPHDFIEHILRKLPQQREKLSLIRKHAQTFIALCATDFKFAMYPPSMIATGSVGAAICGLQQDEEVSSLTCDALTELLAKITNTDVDCLKACQEQIEAVLLNSLQQYRQDQRDGSKSEDELDQASTPTDVRDIDL”, the protein production was “not failed”. In the case of “MELLIRTEQLLLQNEKNWELYLSNREEEKPFDFYKDMKPFVDEAKRCADDFLELAIPWVNTERPPYLGELQLRQACDNVQMTAVSAFNGRSFYKHFLDHYQSTKYTLTRVRDFLKRKEESM”, the protein production is reported as “not failed”. In the case of “MELLKEYNPYLEYRDGELFIEGVSLKELAQTFGTPLYVYSSNFIKERFEAYRKAFPDALICYAVKANFNPHLVKLLGELGAGADIVSGGELYLAKKAGIPPERIVYAGVGKTEKELTDAVDSEILMFNVESRQELDVLNEIAGKLGKKARIAIRVNPDVDPKTHPYIATGMQKSKFGVDIREAQKEYEYASKLENLEIVGIHCHIGSQILDISPYREAVEKVVSLYESLTQKGFDIKYLDIGGGLGIKYKPEDKEPAPQDLADLLKDLLENVKAKIILEPGRSIMGNAGILITQVQFLKDKGSKHFIIVDAGMNDLIRPSIYNAYHHIIPVETKERKKVVADIVGPICETGDFLALDREIEEVQRGEYLAVLSAGAYGFAMSSHYNMRPRAAEVLVENGSVKLIRKRENYDYIVEPSLDI”, the protein production is reported as “not failed”. With “MELNQPPLPTEIDGDAYHKPSFNDLGLKESVLKSVYEAGFTSPSPIQEKAIPAVLQGRDVIAQAQTGTGKTAAFALPIINNLKNNHTIEALVITPTRELAMQISDEIFKLGKHTRTKTVCVYGGQSVKKQCEFIKKNPQVMIATPGRLLDHLKNERIHKFVPKVVVLDESDEMLDMGFLDDIEEIFDYLPSEAQILLFSATMPEPIKRLADKILENPIKIHIAPSNITNTDITQRFYVINEHERAEAIMRLLDTQAPKKSIVFTRTKKEADELHQFLASKNYKSTALHGDMDQRDRRSSIMAFKKNDADVLVATDVASRGLDISGVSHVFNYHLPLNTESYIHRIGRTGRAGKKGMAITLVTPLEYKELLRMQKEIDSEIELFEIPTINENQIIKTLHDAKVSEGIISLYEQLTEIFEPSQLVLKLLSLQFETSKIGLNQQEIDAIQNPKEKTPKPSNKKTPQHERARSFKKGQHRDRHPKTNHYSKKPKRR” the protein production was “failed”. With “MELRIMTGKLILLGFIIYQCVFSESDNLPWLVFSLLVYVCINLGIAILPKGKTKKLFIIISVIISIVSYAEVHPLFILFLPFTLCEGAADFGLPKWAVLAASIVPVLFINESISAVYALTAAFQFLLYWAASHDAARIEKLEHHIDQTRRDLQKLTNMLRENKEFIRQSEYTYKLEERNRLSQEIHDKIGHSMTGALIQLEAAKRVLDIDKEKASELLQNAINISKDGIENIRLTLKSVKPPSEQMGIHRLRLFIDECSAQYHMNISFLHKGDLDVISQIQWKIIFENITEALTNSVKYAEATHVSICIHVLNTLIKAEVKDNGKGRQKIKKGMGIIGMEERAASVNGKVIVDGSNGFSVTTLLPKHE” the protein production was “failed”. With “MELRTPGTKWSPQGIGSLRRVVWDYSTPEISLFSEEGLKGEQVKLTEALKNSQGLEKPLQVASATVSAGLWLLYPKPLFEDTPYILEPGEYPTSEAWGTSDPSVGSLKPMRLGCPSVEKPGEPRAVVYEAPGFQGRSWEVSRDIYNLQQPEDSQSPHLASVGSLRVLGGCWVGYEKEGFRGHQYLLEEGEYPDWSHWGGYDELLTSLRVIRTDFGDPAVVLFEAMDFEGHGVEVSKALPDVELVQHGPSTQAIHVLSGVWVAYQEVGFSGEQYVLEKGVYRNCEDWGAGNSTLASLQPVLQVGEHDLHFVSKIQLFSRPDFLGDHFSFEDDQAALPASFRPQSCRVHGGSWILFDETNFEGDQHILSEGEFPTLTAMGCLASTVLGSLQKVSLHFSEPSIFLYGLECFEGKEIELSREVRSLQAEGFNNHVLSVRIKGGIWVLCEHSDFRGRQWLVGSCEITNWLTYSGTQRVGSLYPIKQRRVYFRLWNAALGGFLAVPDHVEDMKAGRVVVADPQAGGSCIWYYEDGLLKNQMAPTMSLQVIGPPSPGSKVVLWAESRLPRQTWSISESGHICSQMFEGQILDVKGGRGYDRDHVVLWEPDEDRASQIWTIHVL” the protein production was “failed”. With “MELWTHPTPAAPRLATSTRTRWRRTSRCSQPWATTPGTNSSDASRTPTTASASATSKPQSASARARSVRRSPDCTPRAWSRGARKDRGATTNRPRRPKFCSKRSTTCEATMSNDNETMVADRDPEETREMVRERYAGIATSGQDCCGDVGLDVSGDGGCCSDETEASGSERLGYDADDVASVADGADLGLGCGNPKAFAAMAPGETVLDLGSGAGFDCFLAAQEVGPDGHVIGVDMTPEMISKARENVAKNDAENVEFRLGEIGHLPVADESVNVVISNCVVNLAPEKQRVFDDTYRVLRPGGRVAISDVVQTAPFPDDVQMDPDSLTGCVAGASTVDDLKAMLDEAGFEAVEIAPKDESTEFISDWDADRDLGEYLVSATIEARKPARDD” the protein production was “failed”. In the case of “MEMESAAASTRFHQPHMERKMSAMACEIFNELRLEGKLCDVVIKVNGFEFSAHKNILCSCSSYFRALFTSGWNNTEKKVYNIPGISPDMMKLIIEYAYTRTVPITPDNVEKLLAAADQFNIMGIVRGCCEFLKSELCLDNCIGICKFTDYYYCPELRQKAYMFILHNFEEMVKVSAEFLELSVTELKDIIEKDELNVKQEDAVFEAILKWISHDPQNRKQHISILLPKVRLALMHAEYFMNNVKMNDYVKDSEECKPVIINALKAMYDLNMNGPSNSDFTNPLTRPRLPYAILFAIGGWSGGSPTNAIEAYDARADRWVNVTCEEESPRAYHGAAYLKGYVYIIGGFDSVDYFNSVKRFDPVKKTWHQVAPMHSRRCYVSVTVLGNFIYAMGGFDGYVRLNTAERYEPETNQWTLIAPMHEQRSDASATTLYGKVYICGGFNGNECLFTAEVYNTESNQWTVIAPMRSRRSGIGVIAYGEHVYAVGGFDGANRLRSAEAYSPVANTWRTIPTMFNPRSNFGIEVVDDLLFVVGGFNGFTTTFNVECYDEKTDEWYDAHGMSIYRSALSCCVVPGLANVEEYAARRDNFPGLALRDEVKYSASTSTLPVRASSFS”, the protein production is reported as “failed”. In the case of “MEMMQDSFQVHRIPQSKYVDGVRWLPQASALNRFFATASYDADCDSSSIEIQSLDPNPRGNHNTNPLIESLSSWTSPSRVSSLEVAGNGGGGGSFKPMVSAATSSGSLHVLMIDLVEGAAIEEFYAAEGERFHVGRVEGVDWREGGECVTVGEDGRVNVVKIVNGEGLRYRKVFDGNGLVAYRAVKWASPTEFVTGGYGFGLQLWDQRKSGEAVSQLKGNWFQGKTSAIVHSIDIHPSRKHTCIAGGSSGTVFAWDLRWPQQPIVLSGVGASENINNPLSESEVWEVQYDSYTKSNVSSSRILPVMTCSEDGILGIIEQGEEPIELLAEPCAINSFDIDRQNPQDVICSLEWESIAVFSRP”, the protein production is reported as “failed”.
